Drawing on the supplement of paper PMC12042874, this text covers amyloid nucleation score for 133 substances.

± gives the uncertainty stated by the source.

The data set is described as follows: amyloid nucleation score (Sup35N fusion, yeast selection) (log enrichment); library NNK3; higher = more nucleation; inactive = no reads after selection. Put shortly: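 The nucleation score, computed with DiMSum, is the log enrichment of output over input reads, centred on the mode score of non-aggregating sequences. Sequences with under 100 input reads were dropped. Reads were generated by Illumina sequencing of plasmid inserts from psi-negative yeast with Sup35N fused to peptides of 20 random codons, induced with 100 μM copper sulfate for 24 hours and grown 7 days at 30°C on medium lacking adenine and uracil.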
Regarding FYRSFSPSYNLYMYGIYDR, the amyloid nucleation score was determined as 2.77 ± 0.067.

For the substance RMINVSVR, the amyloid nucleation score result is “inactive”.

Take SQKGCRH: the amyloid nucleation score result was “inactive”.

As to GIVTLSA, the amyloid nucleation score result was “inactive”.

The substance CCFTLGAVSNCSLRGNSQTL gave an amyloid nucleation score of -1.2 ± 1.9.

On to CPKALRIIGRSYCRTSEVTS, for which the amyloid nucleation score entry is “inactive”.

Turning to DIYFTSESSVYIVHWFLFRH, the amyloid nucleation score result was “inactive”.

MYVSV: the amyloid nucleation score entry is “inactive”.

Consider MDRIFWD, for which the amyloid nucleation score entry was “inactive”.

Consider FYDAWRIFLSYFRLSLLTNV, for which the amyloid nucleation score result is “inactive”.

In the case of NELVLKYRSTVVLVKLW, the amyloid nucleation score result is “inactive”.

With IFYFHQFNCMPGLAFTSVIG, the amyloid nucleation score result is “inactive”.

Regarding WPDLQLLSSALPTPLQFSWL, the amyloid nucleation score result is “inactive”.

Take YYCTM: the amyloid nucleation score entry is “inactive”.

As for FGTGDMCKQCRHDVVRHSCL, the amyloid nucleation score entry is “inactive”.

On to DYITYVYYVSVRF, for which the amyloid nucleation score was -0.124 ± 0.82.

In the case of VRMFRDLLYPAEYLS, the amyloid nucleation score entry was “inactive”.

Turning to FFNIDVHARVSI, the amyloid nucleation score result was “inactive”.

Substance FVNCLCKRARYYSSGGLSSP displayed an amyloid nucleation score of -0.512 ± 1.4.

For the substance LYRPCLWSDWRT, the amyloid nucleation score entry is “inactive”.

On to RIYQRSFIWCASMESGSGPL, for which the amyloid nucleation score amounted to 0.747 ± 0.2.

Substance NHMLCCTCDFHYCVRGWKSF showed an amyloid nucleation score of 0.64 ± 0.33.

In turn, SSLGSETRFSYKRVHIENWR came in with an amyloid nucleation score of -0.97 ± 0.9.

As to LETNG, the amyloid nucleation score result is “inactive”.

As for LLKPTVRCKPRLK, the amyloid nucleation score result was “inactive”.

In the case of SFTRCWLNKREMKMYTFSAR, the amyloid nucleation score entry is “inactive”.

VMSSMWLAGQTWLSYNCICD yielded an amyloid nucleation score of 2.35 ± 0.075.

For the substance GSYMYKKGLQF, the amyloid nucleation score result is “inactive”.

For EKANLLIWDFKKDMLRTVGG, the amyloid nucleation score result is “inactive”.

Take WWPLSLGNNVGPLHCRSRWE: the amyloid nucleation score result is “inactive”.

On to SRFKMICSRDRLNNRSVVLG, for which the amyloid nucleation score result is “inactive”.

Consider EIVSWVDHFYWTWTGYHKCW, for which the amyloid nucleation score was -0.886 ± 1.

As to YYQGAQPLNPGAR, the amyloid nucleation score entry is “inactive”.

As for NTTFS, the amyloid nucleation score entry was “inactive”.

For SVLHMWNLRVVLHECYVYHI, the amyloid nucleation score result is “inactive”.

Consider RCNISTRFLLLWTFSFLLVY, for which the amyloid nucleation score result is “inactive”.

With RDFTSYGCFVASSSLDRSFL, the amyloid nucleation score result is “inactive”.

On to LRQNTYMLLSGNIVCRIVSF, for which the amyloid nucleation score result was “inactive”.

Take LVFSNFYGYFRASC: the amyloid nucleation score result was “inactive”.

Substance TKSYPRTMFEPALALDMP gave an amyloid nucleation score of 0.871 ± 0.26.

Regarding FVVVHLSVKSIVPAFVSWDR, the amyloid nucleation score is -0.36 ± 0.84.

Turning to SWSGCGLVPSSVSWGYGTCV, the amyloid nucleation score is -0.47 ± 1.9.

Consider CIRIYATFFKLRQSYNGTNG, for which the amyloid nucleation score was 1.03 ± 0.14.

The substance RTLTLLYTFF came in with an amyloid nucleation score of 2.56 ± 0.052.

DGGRTSLLLTEKKVR: the amyloid nucleation score result was “inactive”.

On to WNPFGRGWLTLPNMFHKTVI, for which the amyloid nucleation score entry was “inactive”.

In the case of VDNNHYQRKSKGFGVAGLIR, the amyloid nucleation score result is “inactive”.

With EVCLGVSGRHGANSVVIDWT, the amyloid nucleation score result was “inactive”.

Turning to IEAMRNRWSFKY, the amyloid nucleation score result is “inactive”.

As for AVSRDCELYKVEYYLVQ, the amyloid nucleation score result was “inactive”.

LRLQIEKTAKNMFEYKAG: the amyloid nucleation score result is “inactive”.

Regarding SYGVGWVYTEFGNLLRSFGL, the amyloid nucleation score result is “inactive”.

As to GCCFLVILWMKYDCYLGDQV, the amyloid nucleation score result is “inactive”.

With SLMDNVLSFHFVVANWNTLD, the amyloid nucleation score entry was “inactive”.

In the case of LQSEPVLSDTSMSGVVASYF, the amyloid nucleation score entry is “inactive”.

HDRDHDMINSFIAFRQYWPW had an amyloid nucleation score of 0.339 ± 0.34.

For PHMNWSYVPQF, the amyloid nucleation score result was “inactive”.

Turning to HLRVRCLSF, the amyloid nucleation score result is “inactive”.

Turning to LGWLLVTNWTSTYAGSLHDG, the amyloid nucleation score entry was “inactive”.

Substance RSARQHFPRNRGGNHSSDRV registered an amyloid nucleation score of 0.204 ± 0.43.

With NIALFEILSSGIIVSNSNER, the amyloid nucleation score result was “inactive”.

As to LTINDLCGFVKWLRTNCNVS, the amyloid nucleation score entry is “inactive”.

Take GWNSRM: the amyloid nucleation score result was “inactive”.

Turning to MHGTI, the amyloid nucleation score result is “inactive”.

For the substance CYMVEDRRIDSRSAVSWRYV, the amyloid nucleation score entry is “inactive”.

Consider RLGLSAMSFCLCDSTSIATY, for which the amyloid nucleation score result was “inactive”.

With MMSDLILV, the amyloid nucleation score was -0.43 ± 1.

For FTAWTLLLSGMFVIASANMA, the amyloid nucleation score result is “inactive”.

On to KICAK, for which the amyloid nucleation score entry was “inactive”.

With SLKLRCLLGTSKVVMVDLFV, the amyloid nucleation score result is “inactive”.

Regarding RLGSSNV, the amyloid nucleation score result was “inactive”.

For the substance YASVEIFHWTFSGILYSWGH, the amyloid nucleation score result is “inactive”.

Regarding GIMVSWIVGFMLCSILRMGD, the amyloid nucleation score result was “inactive”.

HFIASRGSGNLKVAFTDSQT: the amyloid nucleation score is 1.23 ± 0.1.

Turning to SLYHSLSGYHFCISMLL, the amyloid nucleation score entry was “inactive”.

Take SYWYACGKYADNSMER: the amyloid nucleation score result is “inactive”.

On to VVDGSRCPPLSLSSDMWAR, for which the amyloid nucleation score entry was “inactive”.

Turning to IGNFRGL, the amyloid nucleation score entry was “inactive”.

LNSTVSGKFMLL registered an amyloid nucleation score of 0.078 ± 0.66.

With SNLVDGMSWHHFKERIVMLD, the amyloid nucleation score entry is “inactive”.

Consider MYLVG, for which the amyloid nucleation score result was “inactive”.

MVVRDDKIWIAFRCLYDCCV: the amyloid nucleation score result is “inactive”.

TCTCGVFSD: the amyloid nucleation score entry was “inactive”.

With VTYNTSSGRVYGTGHNWFQG, the amyloid nucleation score result was “inactive”.

As to GLCKS, the amyloid nucleation score entry was “inactive”.

The substance VLNSIGPYVMTKR came in with an amyloid nucleation score of 0.139 ± 0.63.

RIEAFLAP: the amyloid nucleation score came out at 1.12 ± 0.18.

The substance SYSSDWVLLGGMFFAKY gave an amyloid nucleation score of 0.164 ± 0.56.

Turning to DRAMFYDALDNARVISKLRG, the amyloid nucleation score result is “inactive”.

In turn, YGNVIFRFVRADERI registered an amyloid nucleation score of 0.314 ± 0.35.

As for YPFLSIGLYQCRS, the amyloid nucleation score result is “inactive”.

In the case of GLKLCCV, the amyloid nucleation score result was “inactive”.

LWIVLQVHSFDVRFAQGFHI: the amyloid nucleation score was determined as 0.613 ± 0.17.

Regarding NRKSRSYTLFLV, the amyloid nucleation score result was “inactive”.

For QGEHRHLCDLSLSEG, the amyloid nucleation score result was “inactive”.

Turning to VNDVLIRKCLAMESNVNEAI, the amyloid nucleation score result was “inactive”.

Regarding VCWSHKCRVDVS, the amyloid nucleation score result was “inactive”.

The substance CHHYHMWLRFGSVEWIRGMD displayed an amyloid nucleation score of -0.052 ± 0.38.

With RVLVHYEVGFSENSRWGSVD, the amyloid nucleation score came out at 0.481 ± 0.32.

Take GLDRI: the amyloid nucleation score result is “inactive”.

RDSFVFYVY: the amyloid nucleation score result is “inactive”.

Regarding IFWYEDKIYKMGWQFGGIAY, the amyloid nucleation score is 1.1 ± 0.11.

In the case of MMGKRDALVFN, the amyloid nucleation score result was “inactive”.

PLLLQWHHYNLLGRS came in with an amyloid nucleation score of 0.193 ± 0.69.

In the case of RMRYFDVYIWSDMRNEPGGL, the amyloid nucleation score result was “inactive”.

Consider WADIIKMGDVHVVDYYRKER, for which the amyloid nucleation score entry was “inactive”.

In the case of FIYSFLSYHIWTFKPPVVVG, the amyloid nucleation score result was “inactive”.

Turning to NSFDGTYVYTYLPSELSTFP, the amyloid nucleation score result is “inactive”.

As to KFVQSIIGHWNLGHMPCGSM, the amyloid nucleation score is 0.587 ± 0.17.

As for LGRCFVFMRTVCFDSA, the amyloid nucleation score entry is “inactive”.

MHFVELLRLALVL: the amyloid nucleation score entry was “inactive”.

In the case of WFERCLCLLTTRIKYLFSAD, the amyloid nucleation score result is “inactive”.

Take HKYKQIWMFPEGPV: the amyloid nucleation score entry is “inactive”.

Consider TTLMMGTEPGLDTRLSSLCY, for which the amyloid nucleation score entry was “inactive”.

As to DSNLVFFGSIFFTVLMWLTK, the amyloid nucleation score entry was “inactive”.

On to SFRRLDGNRNLFSSCRVNGL, for which the amyloid nucleation score result was “inactive”.

Turning to CMTLYLLSLSC, the amyloid nucleation score entry was “inactive”.

Consider VLGYYAKGDRSSWSRGYSY, for which the amyloid nucleation score was found to be 0.194 ± 0.87.

On to KIYIILNGWQVSLIDYYGGK, for which the amyloid nucleation score turned out to be 2.58 ± 0.056.

For FICCMLIMKVNYDTRLISSM, the amyloid nucleation score result was “inactive”.

With SKVRICKDKGWSG, the amyloid nucleation score entry was “inactive”.

On to GKKMKEGCSSNISIVELSRN, for which the amyloid nucleation score result was “inactive”.

Consider ILSIHSGFCWWMRGALNGKL, for which the amyloid nucleation score came out at 1.45 ± 0.14.

As to LFVIYISDIAPTGYQVQNDI, the amyloid nucleation score entry was “inactive”.

In the case of GNVQFCRFFFDMSSLHDIMT, the amyloid nucleation score entry is “inactive”.

Turning to MPSEILVSGIAGYAWAVSR, the amyloid nucleation score is -0.504 ± 1.9.

For QREGSNCAILCLL, the amyloid nucleation score entry is “inactive”.

On to KRNRRTISLMTKFIMGKPGY, for which the amyloid nucleation score result is “inactive”.

In the case of MVSLHYVI, the amyloid nucleation score result is “inactive”.

Regarding RHSLQMVRGTHSLCLWYNWV, the amyloid nucleation score entry was “inactive”.

In the case of STKPFSYYCLRYHRTVTALL, the amyloid nucleation score entry was “inactive”.

Turning to MLFYCFYINGRAARTYKRYS, the amyloid nucleation score entry was “inactive”.

Regarding AHFFVCCALSDRCRLRDVLQ, the amyloid nucleation score entry was “inactive”.
